In paper PMC6604391:
Read-outs that look alike come from different tables or passages of the source.

Assays:
casein [1] = target: casein
casein [2] = target: casein; remark: listed apart in the source

SPPS, serine alkaline protease from Pleurotus sajor-caju strain CTM10057 (enzyme)
Km of casein hydrolysis (Lineweaver-Burk, pH 9.5, 70 °C) (casein [1]): 0.275 mg/mL
Km of casein hydrolysis (Lineweaver-Burk, pH 9.5, 70 °C) (casein [2]): 0.295 mg/mL
